Experimental data from the RNAGym collection of RNA variant scans (doi:10.7554/elife.80360).

B1: Twister Ribozyme (parent)
chain: AACACUGCCAAUGCCGGUCCCAAGCCCGGAUAAAAGUGGAGGGGGCGG

Variants of: B1
Experiment: self-cleavage, relative activity (ratio to wild type); higher = more cleavage; co-transcriptional

Variant	self-cleavage
AACACUGCCAAUGCCGGUCCCAAUCCCGGAUAAAAGUGGAGGGGGCGC	0.127
AACACUGCCAAUGCCGGUCCCAAUCCCGGACAAAAGUGGAGGGGGCGG	0.13
AACACUGCCAAUGCCGGUCCCAAUCCCGGAGAAAAGUGGAGGGGGCGG	0.13
AACACUGCCAAUGCCGGUCCCAAUCCCGGAUAAAAGAGGAGGGGGCGG	0.0892
AACACUGCCAAUGCCGGUCCCAAGACCGGAUAAAAGUGGAGGGGGCGG	0.144
AACACUGCCAAUGCCGGUCCCAAGACCGGUUAAAAGUGGAGGGGGCGG	0.0882
AACACUGCCAAUGCCGGUCCCAAGACCGGAUCAAAGUGGAGGGGGCGG	0.0985
AACACUGCCAAUGCCGGUCCCAAGACCGGAUAGAAGUGGAGGGGGCGG	0.079
AACACUGCCAAUGCCGGUCCCAAGACCGGAUAUAAGUGGAGGGGGCGG	0.0752
AACACUGCCAAUGCCGGUCCCAAGACCGGAUAACAGUGGAGGGGGCGG	0.0515
AACACUGCCAAUGCCGGUCCCAAGACCGGAUAAAAGUGGUGGGGGCGG	0.0741
AACACUGCCAAUGCCGGUCCCAAGAACGGAUAAAAGUGGAGGGGGCGG	0.0988
AACACUGCCAAUGCCGGUCCCAAGAUCGGAUAAAAGUGGAGGGGGCGG	0.0948
AACACUGCCAAUGCCGGUCCCAAGACGGGAUAAAAGUGGAGGGGGCGG	0.104
AACACUGCCAAUGCCGGUCCCAAGACUGGAUAAAAGUGGAGGGGGCGG	0.136
AACACUGCCAAUGCCGGUCCCAAGACCCGAUAAAAGUGGAGGGGGCGG	0.146
AACACUGCCAAUGCCGGUCCCAAGACCUGAUAAAAGUGGAGGGGGCGG	0.146
AACACUGCCAAUGCCGGUCCCAAGACCGGAUAAAAAUGGAGGGGGCGG	0.0755
AACACUGCCAAUGCCGGUCCCAAGACCGGAUAAAAUUGGAGGGGGCGG	0.0554
AACACUGCCAAUGCCGGUCCCAAGACCGGAUAAAAGUUGAGGGGGCGG	0.0853
AACACUGCCAAUGCCGGUCCCAAGACCGGAUAAAAGUGGAUGGGGCGG	0.0916
AACACUGCCAAUGCCGGUCCCAAGACCGGAUAAAAGUGGAGAGGGCGG	0.0675
AACACUGCCAAUGCCGGUCCCAAGACCGGAUAAAAGUGGAGUGGGCGG	0.0765
AACACUGCCAAUGCCGGUCCCAAGACCGGAUAAAAGUGGAGGAGGCGG	0.0661
AACACUGCCAAUGCCGGUCCCAAGACCGGAUAAAAGUGGAGGCGGCGG	0.0876
AACACUGCCAAUGCCGGUCCCAAGACCGGAUAAAAGUGGAGGUGGCGG	0.0941
AACACUGCCAAUGCCGGUCCCAAGACCGGAUAAAAGUGGAGGGAGCGG	0.169

Variant	self-cleavage
AACACUGCCAAUGCCGGUCCCAAGACCGGAUAAAAGUGGAGGGCGCGG	0.111
AACACUGCCAAUGCCGGUCCCAAGACCGGAUAAAAGUGGAGGGUGCGG	0.107
AACACUGCCAAUGCCGGUCCCAAGACCGGAUAAAAGUGGAGGGGUCGG	0.0929
AACACUGCCAAUGCCGGUCCCAAGACCGGAUAAAAGUGGAGGGGGCAG	0.102
AACACUGCCAAUGCCGGUCCCAAGACCGGAUAAAAGUGGAGGGGGCGA	0.106
AACACUGCCAAUGCCGGUCCCAAGACCGGAUAAAAGUGGAGGGGGCGU	0.0867
AACACUGCCAAUGCCGGUCCCAAGACCGGAAAAAAGUGGAGGGGGCGG	0.0924
AACACUGCCAAUGCCGGUCCCAAGACCGGAUAAAAGCGGAGGGGGCGG	0.0999
AACACUGCCAAUGCCGGUCCCAAGGCCGGAUAAAAGUGGAGGGGGCGG	0.458
AACACUGCCAAUGCCGGUCCCAAGGCCGGCUAAAAGUGGAGGGGGCGG	0.129
AACACUGCCAAUGCCGGUCCCAAGGCCGGAUCAAAGUGGAGGGGGCGG	0.261
AACACUGCCAAUGCCGGUCCCAAGGCCGGAUGAAAGUGGAGGGGGCGG	0.216
AACACUGCCAAUGCCGGUCCCAAGGCCGGAUAGAAGUGGAGGGGGCGG	0.148
AACACUGCCAAUGCCGGUCCCAAGGCCGGAUAACAGUGGAGGGGGCGG	0.115
AACACUGCCAAUGCCGGUCCCAAGGCCGGAUAAUAGUGGAGGGGGCGG	0.158
AACACUGCCAAUGCCGGUCCCAAGGCCGGAUAAACGUGGAGGGGGCGG	0.182
AACACUGCCAAUGCCGGUCCCAAGGCCGGAUAAAGGUGGAGGGGGCGG	0.0857
AACACUGCCAAUGCCGGUCCCAAGGCCGGAUAAAAGUGGCGGGGGCGG	0.0986
AACACUGCCAAUGCCGGUCCCAAGGCCGGAUAAAAGUGGGGGGGGCGG	0.129
AACACUGCCAAUGCCGGUCCCAAGGCCGGAUAAAAGUGGUGGGGGCGG	0.103
AACACUGCCAAUGCCGGUCCCAAGGACGGAUAAAAGUGGAGGGGGCGG	0.0961
AACACUGCCAAUGCCGGUCCCAAGGCAGGAUAAAAGUGGAGGGGGCGG	0.105
AACACUGCCAAUGCCGGUCCCAAGGCCGGAUAAAAGUGGAGGGGGUGG	0.286
AACACUGCCAAUGCCGGUCCCAAGGCCCGAUAAAAGUGGAGGGGGCGG	0.0925
AACACUGCCAAUGCCGGUCCCAAGGCCGCAUAAAAGUGGAGGGGGCGG	0.109
AACACUGCCAAUGCCGGUCCCAAGGCCGUAUAAAAGUGGAGGGGGCGG	0.651
AACACUGCCAAUGCCGGUCCCAAGGCCGGAUAAAAUUGGAGGGGGCGG	0.103
